For one molecule, Kd results are on record in article PMC11024197 (Nature Communications, 2024).

Values joined by “and” are separate entries in the source; they are usually repeats but may differ in a detail not shown here. Equal values may be shown once.

By Kd is commonly meant the free concentration of one partner at which half of the binding sites on the other are occupied at equilibrium, for simple one-to-one binding.

What all share (assay): ITC; PEX14 (1-104) (20-60 uM, concentration corrected with the fit) in the cell, peptide or fragment in the syringe; 25 °C, 20 mM Tris pH 7.5, 50 mM NaCl; one-site binding model; single runs of triplicates and their averages
Conditions in all cases: both partners purified
In general terms: Isothermal titration calorimetry measures the heat released or taken up as one component is titrated into another.

The target in assay [1] is T1, PEX5 W2 peptide (human).
T1 construct: 15-mer with the W2 WxxxF motif of human PEX5; source: synthetic peptide, bought: PSL (Peptide Specialty Laboratories)

The target in assay [2] is T2, PEX5 W3 peptide (human).
T2 construct: 15-mer with the W3 WxxxY motif of human PEX5; source: synthetic peptide, bought: PSL (Peptide Specialty Laboratories)

Assay [3] addresses T3, PEX5 W4 peptide (human).
T3 construct: 15-mer with the W4 WxxxY motif of human PEX5 (R183, Y185, Y188 are named in the text); source: synthetic peptide, bought: PSL (Peptide Specialty Laboratories)

B1: PEX14 NTD (1-104) (domain or fragment, human, UniProt O75381 1-104, looked up)
chain: MASSEQAEQPSQPSSTPGSENVLPREPLIATAVKFLQNSRVRQSPLATRRAFLKKKGLTDEEIDMAFQQSGTAADEPSSLGPATQVVPVQPPHLISQPYSPAGS
notes: human PEX14 (UniProtKB O75381), N-terminal domain, residues 1-104; also called PEX14 (1-104); source: E. coli BL21 (DE3), purified (Ni-NTA, SUMO cleavage, reverse Ni-NTA, SEC)
As to B1, the Kd in assay [1] was 70.4 nM and 69.1 nM and 81.2 nM and 73.6 nM; in assay [2], 188 nM and 97.5 nM and 124 nM and 136 nM; in assay [3], 2.51 µM and 3.26 µM and 3.64 µM and 3.14 µM.
